# B1: MPZ-GFP: myelin protein zero with a C-terminal monomeric EGFP, expressed from plasmid (protein)
# chain: IVVYTDREVHGAVGSRVTLHCSFWSSEWVSDDISFTWRYQPEGGRDAISIFHYAKGQPYIDEVGTFKERIQWVGDPRWKDGSIVIHNLDYSDNGTFTCDVKNPPDIVGKTSQVTLYVFEKVPTRYGVVLGAVIGGVLGVVLLLLLLFYVVRYCWLRRQAALQRRLSAMEKGKLHKPGKDASKRGRQTPVLYAMLDHSRSTKAVSEKKAKGLGESRKDKK
# modifications: left off: monomeric EGFP, C-terminal, kept
# notes: myelin protein zero with a C-terminal monomeric EGFP, expressed from plasmid
# System: CHOP, BiP, and DR5 mRNA in HCT116 cells
# Assay: qPCR of UPR target transcripts (CHOP, BiP, DR5)
# Format: cell-based, Homo sapiens
# Settings: HCT116, transfected 24 hr
# Protocol: Cells were grown in 6-well plates and harvested with 0.5 ml of TRIzol reagent (Life Technologies) per manufacturer’s protocol to extract RNA. For cDNA synthesis, 500 ng of total RNA was reverse transcribed with 2 μl of the SuperScript VILO master mix (Life Technologies # 11755050) in a total reaction volume of 10 μl following the manufacturer’s protocol for reaction temperature and duration. The reverse transcription product was diluted to 200 μl with 10 mM Tris-HCl pH 8.2 and used at 1:100 dilution for subsequent RT-PCR reactions.
# PCR samples were prepared as described by manufacturer’s protocols from iQ SYBR Green Supermix (BioRad #17088800).
# For each experiment, qRT-PCR reactions were set up in triplicate and run using a CFX96 Real Time System (Bio-Rad). Quantitation cycles were determined with CFX Manager 3.0 software (Bio-Rad) and then normalized to GAPDH as an internal control.
molecule,measurement,value
B1,UPR target gene transcription,"dose-dependent upregulation of the UPR transcriptional target genes CHOP, BiP, and DR5"
